The supplement of paper PMC9112550, “Optimization of the antimicrobial peptide Bac7 by deep mutational scanning” (BMC Biology, 2022)

tested on: Escherichia coli TOP10; test: shrunken log2 fold change of peptide-encoding DNA abundance (4.5 h post-induction vs induction); higher = less antimicrobial activity (less host growth inhibition); settings: time post-induction: 4.5 h; library: site-saturation at positions 5, 18, 19, 20
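Further: peptides expressed intracellularly from a pBAD plasmid library in pooled LB shake-flask culture, induced with 0.3% L-arabinose, DNA abundance read by NGS, three biological replicates, DESeq2 with apeglm shrinkage.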

Sequence | shrunken log2 fold change
RRIRMRPPRLPRPRPRPIQMPRP | -0.0558
RRIRNRPPRLPRPRPRPPLHPRP | 0.0562
RRIRLRPPRLPRPRPRPIKDPRP | -0.374
RRIRLRPPRLPRPRPRPGCYPRP | -0.115
RRIRRRPPRLPRPRPRPCIPPRP | -0.867
RRIRNRPPRLPRPRPRPSQTPRP | -0.00249
RRIRKRPPRLPRPRPRPGYLPRP | -0.319
RRIRHRPPRLPRPRPRPFKKPRP | -0.00783
RRIRTRPPRLPRPRPRPACFPRP | 0.252
RRIRNRPPRLPRPRPRPRMLPRP | 0.132
RRIRKRPPRLPRPRPRPGHIPRP | -0.0657
RRIRFRPPRLPRPRPRPSHMPRP | -0.255
RRIRRRPPRLPRPRPRPLRFPRP | 0.836
RRIRVRPPRLPRPRPRPAFQPRP | 0.151
RRIRCRPPRLPRPRPRPMERPRP | -0.00088
RRIRKRPPRLPRPRPRPLRCPRP | 0.35
RRIRGRPPRLPRPRPRPLKYPRP | 0.145
RRIRSRPPRLPRPRPRPVKCPRP | -0.0337
RRIRYRPPRLPRPRPRPGYDPRP | -0.205
RRIRLRPPRLPRPRPRPCNRPRP | 0.214
RRIRNRPPRLPRPRPRPQVAPRP | 0.14
RRIRKRPPRLPRPRPRPDPTPRP | 0.273
RRIRPRPPRLPRPRPRPMNLPRP | 0.00249
RRIRHRPPRLPRPRPRPPYTPRP | -0.266
RRIRARPPRLPRPRPRPRWQPRP | 0.361

Sequence | shrunken log2 fold change
RRIRLRPPRLPRPRPRPFQAPRP | 0.0248
RRIRERPPRLPRPRPRPGNYPRP | -0.264
RRIRIRPPRLPRPRPRPPLQPRP | 0.0345
RRIRRRPPRLPRPRPRPPPFPRP | 0.938
RRIRKRPPRLPRPRPRPIQLPRP | -0.0418
RRIRMRPPRLPRPRPRPLGYPRP | -0.264
RRIRNRPPRLPRPRPRPIFRPRP | -0.0067
RRIRMRPPRLPRPRPRPTQTPRP | 2.06
RRIRYRPPRLPRPRPRPRIHPRP | -0.287
RRIRKRPPRLPRPRPRPFGYPRP | -0.0856
RRIRNRPPRLPRPRPRPFKRPRP | 0.09
RRIRDRPPRLPRPRPRPGALPRP | 0.191
RRIRARPPRLPRPRPRPYMAPRP | -0.702
RRIRCRPPRLPRPRPRPCRWPRP | -0.103
RRIRQRPPRLPRPRPRPPQTPRP | 0.33
RRIRHRPPRLPRPRPRPKSWPRP | 0.26
RRIRTRPPRLPRPRPRPRSSPRP | 0.0755
RRIRCRPPRLPRPRPRPCWWPRP | 0.904
RRIRKRPPRLPRPRPRPSAIPRP | -0.00962
RRIRKRPPRLPRPRPRPKCPPRP | 0.165
RRIRQRPPRLPRPRPRPFMWPRP | -0.245
RRIRARPPRLPRPRPRPRKMPRP | 0.521
RRIRGRPPRLPRPRPRPPNTPRP | 0.516
RRIRMRPPRLPRPRPRPSDIPRP | -0.192
RRIRMRPPRLPRPRPRPRMTPRP | 1.84

Sequence | shrunken log2 fold change
RRIRRRPPRLPRPRPRPQQWPRP | 0.0704
RRIRHRPPRLPRPRPRPCGIPRP | -0.0112
RRIRHRPPRLPRPRPRPMPSPRP | 0.0183
RRIRSRPPRLPRPRPRPSWPPRP | -0.135
RRIRDRPPRLPRPRPRPWRTPRP | -0.0162
RRIRSRPPRLPRPRPRPFIEPRP | -0.285
RRIRLRPPRLPRPRPRPQGQPRP | -0.0201
RRIRMRPPRLPRPRPRPEALPRP | 3.81
RRIRVRPPRLPRPRPRPKREPRP | 0.225
RRIRKRPPRLPRPRPRPGARPRP | 0.962
RRIRIRPPRLPRPRPRPIDSPRP | 0.0203
RRIRSRPPRLPRPRPRPWRRPRP | 0.0927
RRIRRRPPRLPRPRPRPTVIPRP | -0.168
RRIRCRPPRLPRPRPRPYEMPRP | -0.151
RRIRERPPRLPRPRPRPKIPPRP | -0.136
RRIRMRPPRLPRPRPRPCTNPRP | 0.0685
RRIRMRPPRLPRPRPRPVWFPRP | 0.46
RRIRWRPPRLPRPRPRPGHMPRP | -0.0823
RRIRPRPPRLPRPRPRPIWNPRP | -0.282
RRIRERPPRLPRPRPRPRVIPRP | 0.0506
RRIRQRPPRLPRPRPRPPCTPRP | -0.0301
RRIRGRPPRLPRPRPRPSRTPRP | 0.536
RRIRRRPPRLPRPRPRPGNVPRP | 0.418
RRIRGRPPRLPRPRPRPNYLPRP | -0.304
RRIRIRPPRLPRPRPRPTEMPRP | 0.112

Sequence | shrunken log2 fold change
RRIRMRPPRLPRPRPRPHCMPRP | -0.122
RRIRMRPPRLPRPRPRPTMQPRP | 0.566
RRIRMRPPRLPRPRPRPRARPRP | 1.67
RRIRFRPPRLPRPRPRPGTGPRP | -0.124
RRIRYRPPRLPRPRPRPEPIPRP | -0.103
RRIRWRPPRLPRPRPRPQVKPRP | 0.0306
RRIRFRPPRLPRPRPRPSDPPRP | -0.106
RRIRTRPPRLPRPRPRPRQYPRP | -0.302
RRIRERPPRLPRPRPRPALTPRP | 0.131
RRIRTRPPRLPRPRPRPWPAPRP | 0.61
RRIRARPPRLPRPRPRPNVDPRP | 0.0662
RRIRSRPPRLPRPRPRPIRNPRP | -0.379
RRIRTRPPRLPRPRPRPYQSPRP | -0.465
RRIRYRPPRLPRPRPRPVYPPRP | -0.208
RRIRWRPPRLPRPRPRPQMIPRP | -0.0866
RRIRSRPPRLPRPRPRPELIPRP | -0.123
RRIRCRPPRLPRPRPRPFCAPRP | -0.00432
RRIRTRPPRLPRPRPRPYIEPRP | -1.14
RRIRPRPPRLPRPRPRPWHKPRP | -0.29
RRIRFRPPRLPRPRPRPVEKPRP | 0.149
RRIRRRPPRLPRPRPRPEHNPRP | 0.183
RRIRSRPPRLPRPRPRPKPRPRP | 0.594
RRIRQRPPRLPRPRPRPECIPRP | -0.269
RRIRIRPPRLPRPRPRPRAMPRP | -0.0601
RRIRARPPRLPRPRPRPKDSPRP | 0.181

Sequence | shrunken log2 fold change
RRIRVRPPRLPRPRPRPTWWPRP | 0.0544
RRIRVRPPRLPRPRPRPVQQPRP | -0.246
RRIRPRPPRLPRPRPRPDIYPRP | -0.0306
RRIRCRPPRLPRPRPRPLKQPRP | -0.151
RRIRWRPPRLPRPRPRPVFNPRP | -0.259
RRIRLRPPRLPRPRPRPNKEPRP | 0.0626
RRIRLRPPRLPRPRPRPAWVPRP | -0.0218
RRIRGRPPRLPRPRPRPYMCPRP | 0.0864
RRIRSRPPRLPRPRPRPCPHPRP | -0.283
RRIRIRPPRLPRPRPRPFIGPRP | -0.227
RRIRERPPRLPRPRPRPPSYPRP | -0.0583
RRIRIRPPRLPRPRPRPFCWPRP | -0.0029
RRIRSRPPRLPRPRPRPSVNPRP | -0.119
RRIRDRPPRLPRPRPRPPMNPRP | -0.258
RRIRCRPPRLPRPRPRPWRTPRP | -0.166
RRIRVRPPRLPRPRPRPWQVPRP | -0.161
RRIRMRPPRLPRPRPRPHRSPRP | -0.0246
RRIRSRPPRLPRPRPRPGARPRP | 0.492
RRIRFRPPRLPRPRPRPKHIPRP | -0.615
RRIRHRPPRLPRPRPRPLPVPRP | 0.125
RRIRTRPPRLPRPRPRPLLIPRP | -0.0383
RRIRVRPPRLPRPRPRPTGGPRP | 0.18
RRIRPRPPRLPRPRPRPVYKPRP | -0.199
RRIRIRPPRLPRPRPRPTIIPRP | -0.848
RRIRVRPPRLPRPRPRPNIWPRP | -0.13

Sequence | shrunken log2 fold change
RRIRQRPPRLPRPRPRPAHDPRP | -0.161
RRIRYRPPRLPRPRPRPIKYPRP | -0.0893
RRIRKRPPRLPRPRPRPKFPPRP | 0.134
RRIRFRPPRLPRPRPRPDGNPRP | -0.174
RRIRVRPPRLPRPRPRPKLIPRP | -0.198
RRIRPRPPRLPRPRPRPILQPRP | -0.224
RRIRHRPPRLPRPRPRPAISPRP | -0.121
RRIRHRPPRLPRPRPRPIMNPRP | -1.05
RRIRWRPPRLPRPRPRPLLMPRP | 0.284
RRIRSRPPRLPRPRPRPECCPRP | 0.21
RRIRERPPRLPRPRPRPDEKPRP | 0.147
RRIRNRPPRLPRPRPRPVDKPRP | 0.0215
RRIRARPPRLPRPRPRPDHPPRP | 0.297
RRIRRRPPRLPRPRPRPDEKPRP | 0.135
RRIRIRPPRLPRPRPRPMYVPRP | 0.00823
RRIRQRPPRLPRPRPRPKFEPRP | -0.0683
RRIRLRPPRLPRPRPRPISAPRP | -0.053
RRIRSRPPRLPRPRPRPWPSPRP | 0.117
RRIRSRPPRLPRPRPRPPDQPRP | 0.674
RRIRERPPRLPRPRPRPFHLPRP | -0.173
RRIRRRPPRLPRPRPRPELFPRP | 1.06
RRIRYRPPRLPRPRPRPMDAPRP | -0.00112
RRIRYRPPRLPRPRPRPGPMPRP | -0.148
RRIRRRPPRLPRPRPRPAQQPRP | 0.938
RRIRRRPPRLPRPRPRPFPCPRP | 0.038
